This data set deals with the molecule itself. As to the kind of experiment: non-reducing SDS-PAGE with immunoblot; total cell lysates (1% IGEPAL, 150 mM NaCl, 50 mM Tris-HCl pH 7.9, no reducing agent) in sample buffer without β-ME; cells treated with H2O2 (50-200 uM), T-hydro (1-3 uM), diamide (0.1-1 mM), 10% FBS or expressing H-ras V12. For orientation: Immunoblotting shows a protein as a band on a membrane.

As usually defined, the stoichiometry N is the number of molecules, sites or subunits per partner or assembly.

B1: Flag-tagged PHD3 (natural protein, human, UniProt Q9H6Z9 1-239, looked up)
chain: MPLGHIMRLDLEKIALEYIVPCLHEVGFCYLDNFLGEVVGDCVLERVKQLHCTGALRDGQLAGPRAGVSKRHLRGDQITWIGGNEEGCEAISFLLSLIDRLVLYCGSRLGKYYVKERSKAMVACYPGNGTGYVRHVDNPNGDGRCITCIYYLNKNWDAKLHGGILRIFPEGKSFIADVEPIFDRLLFFWSDRRNPHEVQPSYATRYAMTVWYFDAEERAEAKKKFRNLTRKTESALTED
notes: PHD3, human; Flag-tagged lentiviral vector from William Kaelin; also called Flag-PHD3; source: U2OS stably expressing (lentiviral vector), in lysate
B1: the “stoichiometry N” value was found to be 2.

B2: PHD3, endogenous (natural protein, human (endogenous in U2OS), UniProt Q9H6Z9 1-239, looked up)
chain: MPLGHIMRLDLEKIALEYIVPCLHEVGFCYLDNFLGEVVGDCVLERVKQLHCTGALRDGQLAGPRAGVSKRHLRGDQITWIGGNEEGCEAISFLLSLIDRLVLYCGSRLGKYYVKERSKAMVACYPGNGTGYVRHVDNPNGDGRCITCIYYLNKNWDAKLHGGILRIFPEGKSFIADVEPIFDRLLFFWSDRRNPHEVQPSYATRYAMTVWYFDAEERAEAKKKFRNLTRKTESALTED
notes: PHD3, endogenous in U2OS cells; source: endogenous, U2OS lysate
B2: the “stoichiometry N” value is 2.
